In the supplement of paper PMC9112550, “Optimization of the antimicrobial peptide Bac7 by deep mutational scanning” (BMC Biology, 2022):

Test system: Escherichia coli TOP10
Experiment: shrunken log2 fold change of peptide-encoding DNA abundance (4.5 h post-induction vs induction); higher = less antimicrobial activity (less host growth inhibition)
Conditions: time post-induction: 4.5 h; library: site-saturation at positions 5, 18, 19, 20
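Also: peptides expressed intracellularly from a pBAD plasmid library in pooled LB shake-flask culture, induced with 0.3% L-arabinose, DNA abundance read by NGS, three biological replicates, DESeq2 with apeglm shrinkage.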

Row | Sequence | shrunken log2 fold change
1 | RRIRERPPRLPRPRPRPWMYPRP | -0.508
2 | RRIRLRPPRLPRPRPRPNSAPRP | 0.0654
3 | RRIRFRPPRLPRPRPRPANCPRP | -0.211
4 | RRIRHRPPRLPRPRPRPEIDPRP | 0.0729
5 | RRIRIRPPRLPRPRPRPDPPPRP | 0.075
6 | RRIRERPPRLPRPRPRPFTAPRP | -0.227
7 | RRIRCRPPRLPRPRPRPIRIPRP | 0.0952
8 | RRIRRRPPRLPRPRPRPKYPPRP | -0.0539
9 | RRIRGRPPRLPRPRPRPPNYPRP | 0.299
10 | RRIRYRPPRLPRPRPRPYAGPRP | -0.00131
11 | RRIRWRPPRLPRPRPRPSSYPRP | -0.123
12 | RRIRYRPPRLPRPRPRPAQKPRP | -0.0925
13 | RRIRRRPPRLPRPRPRPYVFPRP | -0.623
14 | RRIRDRPPRLPRPRPRPNCLPRP | 0.0835
15 | RRIRARPPRLPRPRPRPYVIPRP | -0.434
16 | RRIRWRPPRLPRPRPRPLMHPRP | 0.0245
17 | RRIRRRPPRLPRPRPRPTVAPRP | 0.699
18 | RRIRNRPPRLPRPRPRPTWTPRP | 0.201
19 | RRIRKRPPRLPRPRPRPKFAPRP | 0.764
20 | RRIRSRPPRLPRPRPRPIRCPRP | 0.00778
21 | RRIRGRPPRLPRPRPRPLLLPRP | 0.607
22 | RRIRSRPPRLPRPRPRPVRWPRP | 0.893
23 | RRIRRRPPRLPRPRPRPLHQPRP | 0.32
24 | RRIRYRPPRLPRPRPRPKHSPRP | -0.875
25 | RRIRTRPPRLPRPRPRPPSMPRP | 0.13

Row | Sequence | shrunken log2 fold change
26 | RRIRPRPPRLPRPRPRPIESPRP | -0.252
27 | RRIRRRPPRLPRPRPRPFQEPRP | -0.264
28 | RRIRMRPPRLPRPRPRPNCWPRP | 0.755
29 | RRIRRRPPRLPRPRPRPWMWPRP | 0.0918
30 | RRIRVRPPRLPRPRPRPRIYPRP | -0.15
31 | RRIRRRPPRLPRPRPRPFDHPRP | -0.242
32 | RRIRHRPPRLPRPRPRPNAQPRP | -0.00277
33 | RRIRGRPPRLPRPRPRPMYEPRP | 0.282
34 | RRIRRRPPRLPRPRPRPIRVPRP | 0.244
35 | RRIRGRPPRLPRPRPRPACFPRP | 0.939
36 | RRIRYRPPRLPRPRPRPYKNPRP | -1.42
37 | RRIRERPPRLPRPRPRPSFMPRP | -0.546
38 | RRIRLRPPRLPRPRPRPMSKPRP | 0.0198
39 | RRIRRRPPRLPRPRPRPYNLPRP | -0.233
40 | RRIRVRPPRLPRPRPRPEENPRP | 0.265
41 | RRIRVRPPRLPRPRPRPLCNPRP | -0.139
42 | RRIRARPPRLPRPRPRPHHVPRP | -0.0499
43 | RRIRKRPPRLPRPRPRPAMHPRP | 0.402
44 | RRIRARPPRLPRPRPRPHSKPRP | -0.154
45 | RRIRPRPPRLPRPRPRPHWPPRP | 0.0791
46 | RRIRVRPPRLPRPRPRPEAPPRP | 0.000205
47 | RRIRVRPPRLPRPRPRPSYPPRP | -0.392
48 | RRIRWRPPRLPRPRPRPMCWPRP | 0.883
49 | RRIRYRPPRLPRPRPRPLAIPRP | -0.778
50 | RRIRYRPPRLPRPRPRPFANPRP | -0.245

Row | Sequence | shrunken log2 fold change
51 | RRIRDRPPRLPRPRPRPCCGPRP | 1.13
52 | RRIRVRPPRLPRPRPRPKMVPRP | -0.109
53 | RRIRYRPPRLPRPRPRPGFWPRP | 0.689
54 | RRIRGRPPRLPRPRPRPPGKPRP | 0.807
55 | RRIRDRPPRLPRPRPRPICGPRP | 0.0876
56 | RRIRKRPPRLPRPRPRPSVGPRP | 0.0485
57 | RRIRFRPPRLPRPRPRPTCKPRP | -0.295
58 | RRIRPRPPRLPRPRPRPDDCPRP | -0.0649
59 | RRIRMRPPRLPRPRPRPSKNPRP | 0.277
60 | RRIRARPPRLPRPRPRPVSIPRP | 0.119
61 | RRIRWRPPRLPRPRPRPGNMPRP | -0.11
62 | RRIRQRPPRLPRPRPRPAHEPRP | 0.185
63 | RRIRTRPPRLPRPRPRPSRNPRP | -0.0832
64 | RRIRERPPRLPRPRPRPACMPRP | -0.0379
65 | RRIRYRPPRLPRPRPRPGSEPRP | -0.202
66 | RRIRCRPPRLPRPRPRPDWWPRP | 0.256
67 | RRIRKRPPRLPRPRPRPEDEPRP | 2.15
68 | RRIRFRPPRLPRPRPRPNKQPRP | 0.0839
69 | RRIRERPPRLPRPRPRPVQHPRP | -0.402
70 | RRIRMRPPRLPRPRPRPCMWPRP | 0.138
71 | RRIRIRPPRLPRPRPRPGKEPRP | -0.0221
72 | RRIRFRPPRLPRPRPRPNWRPRP | -0.0764
73 | RRIRKRPPRLPRPRPRPTHAPRP | 0.505
74 | RRIRKRPPRLPRPRPRPCPEPRP | 0.196
75 | RRIRSRPPRLPRPRPRPEMMPRP | 0.681
